In article PMC8562373 (Biochemistry (Moscow) Supplement. Series B, Biomedical …, 2021):

Target: SARS-CoV-2 protein S receptor-binding domain (RBD), original Wuhan strain (SARS-CoV-2, UniProt P0DTC2 331-524)
Assay: MST

| Binder | Kd [µM] |
| --- | --- |
| IEEQAKTFLDKFNHQAEDLFYK [h1-Mpa peptide (h1 with Lys31 modified with 3-mercaptopropionic acid)] | > 1000 |
| DKWSAFLKECSTIAQIYPLQEI [h2-Cys peptide (h2 with Gln76 replaced with Cys76)] | > 1000 |
